Source: patent US20020151683A1 (MOGAM BIOTECHNOLOGY RESEARCH INSTITUTE, published 2002)

target: T1, HLA-A2.1, a human MHC Class I molecule, at the surface of T2 cell (human); assay: T2 cell MHC stabilisation assay, peptide 1-100 ug/ml, flow cytometry with BB7.2 anti-HLA-A2.1 and FITC anti-mouse Ig
T1 construct: detected with BB7.2 antibody against HLA-A2.1; also called MHC Class I molecules at the surface of T2 cell
Protocol: Seven different peptides including the peptides as disclosed in Table 1 above which were derived from HBV X protein were synthesized chemically and dissolved in phosphate buffered saline (hereinafter, referred to as “PBS”). In order to investigate whether the peptides can bind to MHC Class I molecules associated with induction of CTL, each peptide was added to T2 cell line in a concentration of 100, 64, 32, 16, 8, 4, 2 and 1 μg/ml, respectively, and reacted at 37° C. for 4 hours. And then, the cells were washed with PBS to remove unreacted peptides, added with BB7.2 antibody against HLA-A2.1, a human MHC Class I molecule, and reacted at 4° C. for 1 hour. The cells were washed with PBS again, added with fluorescein isothiocyanate (FITC)-conjugated anti-mouse immunoglobulin antibody, and reacted at 4° C. for 1 hour. Then, fluorescence of the cells was determined using fluorocytometer (FACScan, BECTON DICKINSON) and the results were shown in FIG. 1.

| Binder | binding result |
| --- | --- |
| EIRLKVFVL [X7 peptide derived from HBV X protein (positions 126-134)] | binds |
| HLSLRGLFV [X3 peptide derived from HBV X protein (positions 052-060)] | binds |
| CLFKDWEEL [X6 peptide derived from HBV X protein (positions 115-123)] | binds |
